For test [1], the target named is Purified human IgG (injectable IVIG) (human). As to the kind of experiment: DBC after 0.5 M NaOH soaking relative to DBC before soaking; agarose column; human IgG.
For test [2] the target is unchanged. As to the kind of experiment: dynamic binding capacity at 10% breakthrough after 24 h in 0.5 M NaOH; ligand on agarose column; human IgG 2.5 mg/ml.
For test [3] the target is unchanged. Description: dynamic binding capacity at 10% breakthrough after 35 h in 0.5 M NaOH; ligand on agarose column; human IgG 2.5 mg/ml.
Test [4] shares this target. Description: dynamic binding capacity at 10% breakthrough; ligand on agarose in 1 ml column; human IgG 2.5 mg/ml; 4 min residence time.

In test [1], “Z domain with S41A/N52V mutations Ig-binding affinity ligand (designed binder)” came in with a Percentage of remaining DBC of 81.5%. This substance also returned a DBC after 24 h soaking in test [2] of 59 mg/mL. The substance further displayed a DBC after 35 h soaking in test [3] of 53 mg/mL. For the same substance, the DBC before NaOH soaking in test [4] came to 65 mg/mL.
In the case of “Z domain with N52V mutation Ig-binding affinity ligand (designed binder)”, the Percentage of remaining DBC in test [1] is 65.1%. Further, the DBC after 24 h soaking in test [2] was found to be 52 mg/mL. In test [3], the DBC after 35 h soaking came to 41 mg/mL. In addition, the DBC before NaOH soaking in test [4] worked out at 63 mg/mL.
In turn, “Z domain with S41V/N52V mutations Ig-binding affinity ligand (designed binder)” had a Percentage of remaining DBC in test [1] of 76.5%. This substance displayed a DBC after 24 h soaking in test [2] of 56 mg/mL. This substance also showed a DBC after 35 h soaking in test [3] of 49 mg/mL. This substance also registered a DBC before NaOH soaking in test [4] of 64 mg/mL.
Substance “Z domain with S41A/N52L mutations Ig-binding affinity ligand (designed binder)” came in with a Percentage of remaining DBC in test [1] of 71.2%. The same substance came in with a DBC after 24 h soaking in test [2] of 50 mg/mL. This substance gave a DBC after 35 h soaking in test [3] of 42 mg/mL. Besides, the DBC before NaOH soaking in test [4] was 59 mg/mL.
The corresponding values for “Z domain with N52L mutation Ig-binding affinity ligand (designed binder)” are 67.2%, 47 mg/mL, 39 mg/mL and 58 mg/mL.
Taken in the same sequence, the figures for “Z domain with S41A mutation Ig-binding affinity ligand (designed binder)” were 70.9%, 52 mg/mL, 44 mg/mL and 62 mg/mL.
In turn, “Z domain with S41V mutation Ig-binding affinity ligand (designed binder)” had a Percentage of remaining DBC in test [1] of 66.1%. Also, the DBC after 24 h soaking in test [2] was determined as 53 mg/mL. This substance also gave a DBC after 35 h soaking in test [3] of 43 mg/mL. The substance further registered a DBC before NaOH soaking in test [4] of 65 mg/mL.

Source of the values: US20240174720A1.
